Target: the molecule itself
Experiment: SEC; Superdex 200 Increase 10/300 GL; molecular weight by elution (Fig. S2)

B1: PnaoΔN30 (residues 31–497) (enzyme, Pseudomonas putida S16, UniProt F8G0P1 31-496, looked up)
chain: IASQLLTLSAPAEAAVKTNVGPSRAGVGYDVIVIGGGFAGVTAAREASRSGLKTLILEGRSRLGGRTFTSKLQNQKVELGGTWVHWTQPNVWTEIMHYGLEVEETVGLANPETVIWVTEDNVKRAPAAEAFEIFGSACNEYYKEARNIYPRPFEPFFERKKLQHVDGLSAADYLEKLPLTREQKDMMDSWLSGNGHNYPETIAYSEIMRWFALSNFNMPTMFDSIARYKIKTGTHSLLEAIMADGNSEVKLSTPVTKVNQDKDKVTVTTEDGVFTASAVIVAVPINTLHDIEYSPKLSAAKVDMGSQRHAGAGVKGYIRVKQNVGNVMTYAPARNKLTPFTSVFTDHVDESGTLLIAFSADPKLIDINDIKAVEKALQPLLPGVEVTASYGYDWNLDPFSKGTWCTYRPNQTTRYLTELQKREGRLFFAGSDMANGWRGFIDGAIENGREVGHQVATYLKRENDNA
notes: Pnao, flavin-dependent pseudooxynicotine oxidase of Pseudomonas putida S16; N-terminal truncation of 30 residues, residues 31-497; Cloned in pET-28a between NcoI and XhoI, which probably gives a C-terminal His6 tag; also called pseudooxynicotine amine oxidase; source: E. coli BL21(DE3), purified (Ni2+-NTA, size-exclusion chromatography)
  stoichiometry N: 2
